In paper PMC7203548:

Key:
[1] = biological target: OTK1-5 K237A ectodomain, biotinylated (pHL-Avitag3) (Drosophila melanogaster) (UniProt Q6AWJ9); experiment: SPR; equilibrium, apparent KD; biotinylated OTK immobilised on SA chip from dialysed conditioned medium; Biacore T200, PBS, 0.05% Tween 20, 25°C
[2] = biological target: PlexA_(ecto) (full-length ectodomain of Drosophila Plexin A, all ten domains, residues 28-1272), biotinylated (Drosophila) (UniProt Q9V491); experiment: SPR; equilibrium, apparent KD; biotinylated PlexA constructs immobilised on SA chip from dialysed conditioned medium; Biacore T200, PBS, 0.05% Tween 20, 25°C
UniProt Q9V491, sequence (Q9V491 entry or part of it): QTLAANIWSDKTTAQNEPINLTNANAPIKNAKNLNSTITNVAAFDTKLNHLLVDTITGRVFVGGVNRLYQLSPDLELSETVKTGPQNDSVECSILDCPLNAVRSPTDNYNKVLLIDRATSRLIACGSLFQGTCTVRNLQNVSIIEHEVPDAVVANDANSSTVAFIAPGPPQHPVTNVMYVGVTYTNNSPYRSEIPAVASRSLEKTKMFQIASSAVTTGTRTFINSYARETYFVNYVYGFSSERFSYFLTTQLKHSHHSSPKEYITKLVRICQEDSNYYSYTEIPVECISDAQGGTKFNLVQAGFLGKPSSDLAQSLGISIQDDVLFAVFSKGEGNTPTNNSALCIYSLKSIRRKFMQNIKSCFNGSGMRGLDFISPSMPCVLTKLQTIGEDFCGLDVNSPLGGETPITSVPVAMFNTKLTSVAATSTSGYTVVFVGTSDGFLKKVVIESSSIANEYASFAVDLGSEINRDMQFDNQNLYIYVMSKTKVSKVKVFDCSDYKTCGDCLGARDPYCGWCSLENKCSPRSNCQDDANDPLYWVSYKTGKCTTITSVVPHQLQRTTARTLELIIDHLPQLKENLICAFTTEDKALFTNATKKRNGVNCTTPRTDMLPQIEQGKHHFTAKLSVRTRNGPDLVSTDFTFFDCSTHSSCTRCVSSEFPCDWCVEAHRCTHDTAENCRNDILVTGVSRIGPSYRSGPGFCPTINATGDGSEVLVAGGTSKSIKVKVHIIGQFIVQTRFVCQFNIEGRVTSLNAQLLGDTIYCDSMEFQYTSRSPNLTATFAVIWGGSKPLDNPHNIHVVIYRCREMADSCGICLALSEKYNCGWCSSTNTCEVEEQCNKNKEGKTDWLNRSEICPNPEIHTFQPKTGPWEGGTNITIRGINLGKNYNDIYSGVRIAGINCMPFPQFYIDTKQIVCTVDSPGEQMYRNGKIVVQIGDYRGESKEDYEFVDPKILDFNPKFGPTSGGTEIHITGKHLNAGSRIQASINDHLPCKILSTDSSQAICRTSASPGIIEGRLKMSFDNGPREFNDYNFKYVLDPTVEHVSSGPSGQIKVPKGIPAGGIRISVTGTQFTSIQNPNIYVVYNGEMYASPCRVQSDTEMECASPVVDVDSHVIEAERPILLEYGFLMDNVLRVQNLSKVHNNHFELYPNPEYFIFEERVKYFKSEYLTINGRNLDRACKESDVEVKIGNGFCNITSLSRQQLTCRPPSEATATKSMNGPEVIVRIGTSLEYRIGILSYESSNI

UniProt Q6AWJ9, sequence (Q6AWJ9 23-580 K237A): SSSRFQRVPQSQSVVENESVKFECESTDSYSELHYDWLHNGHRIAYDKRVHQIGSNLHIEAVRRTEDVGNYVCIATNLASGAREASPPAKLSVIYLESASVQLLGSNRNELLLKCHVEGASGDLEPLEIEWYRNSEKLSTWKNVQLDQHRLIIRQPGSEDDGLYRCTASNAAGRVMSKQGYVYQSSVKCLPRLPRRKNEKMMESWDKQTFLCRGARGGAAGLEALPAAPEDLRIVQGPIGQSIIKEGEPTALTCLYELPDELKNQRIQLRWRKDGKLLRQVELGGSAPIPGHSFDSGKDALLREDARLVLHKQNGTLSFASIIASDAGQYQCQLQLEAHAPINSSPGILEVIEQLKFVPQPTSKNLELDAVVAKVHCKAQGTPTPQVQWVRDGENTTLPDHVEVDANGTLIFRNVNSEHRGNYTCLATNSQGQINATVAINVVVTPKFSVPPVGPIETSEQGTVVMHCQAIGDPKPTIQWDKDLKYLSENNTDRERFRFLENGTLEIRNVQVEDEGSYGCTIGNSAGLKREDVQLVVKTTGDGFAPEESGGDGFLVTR

Kd [1]: 4 µM | Kd [2]: 7.4 µM
Substance: Sema1a ectodomain (Drosophila semaphorin 1a) (from UniProt Q24322 1-899) (ligand)
